Target: biotinylated wildtype K-Ras·GppNHp (His-Avi-TEV-KRAS (wildtype)) (human)
Assay: TR-FRET Ras-Raf interaction assay (competition); reference K-Ras(G12D)

fold IC50 on wildtype K-Ras against that for K-Ras(G12D) [fold] | Substance
> 20 | bicyclic variant of KD2 (Val3 and Arg9 replaced with azidoalanine and propargylglycine) (peptide)
> 20 | bicyclic variant of KD2 (Val3 and Arg9 replaced with two cysteines) (peptide)

Source: patent publication US20230242586A1, “RAS INHIBITORS AND USES THEREOF” (The Regents of the University of California, priority 2020, published 2023)
